From paper PMC2809015 (Biochemistry, 2009)
“And” between values parts separate entries of the source, which are not always exact repeats. Identical values can stand only once. Like-named read-outs stand apart in the source and are kept apart here.

T1: HscA, Hsp70-class molecular chaperone of the isc operon (E. coli, UniProt P0A6Z1 1-616)
T1 sequence (looked up): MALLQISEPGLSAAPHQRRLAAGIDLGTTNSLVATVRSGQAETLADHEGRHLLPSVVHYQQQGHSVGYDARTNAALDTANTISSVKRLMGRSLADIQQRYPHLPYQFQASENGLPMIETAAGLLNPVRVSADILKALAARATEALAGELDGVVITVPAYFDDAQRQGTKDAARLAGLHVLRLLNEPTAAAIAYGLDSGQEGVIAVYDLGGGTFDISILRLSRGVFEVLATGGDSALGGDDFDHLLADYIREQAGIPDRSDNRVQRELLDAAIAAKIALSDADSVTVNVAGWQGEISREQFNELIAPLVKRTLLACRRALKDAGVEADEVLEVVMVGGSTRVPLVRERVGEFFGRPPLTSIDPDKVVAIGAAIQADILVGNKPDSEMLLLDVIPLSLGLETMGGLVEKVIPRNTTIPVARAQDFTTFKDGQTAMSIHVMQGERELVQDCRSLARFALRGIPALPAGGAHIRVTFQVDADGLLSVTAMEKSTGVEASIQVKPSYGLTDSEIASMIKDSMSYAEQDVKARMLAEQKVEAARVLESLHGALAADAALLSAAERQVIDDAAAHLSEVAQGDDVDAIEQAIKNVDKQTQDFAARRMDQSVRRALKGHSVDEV

B1: dethiobiotin synthase (BioD) (enzyme)
chain: SKRYFVTGTDTEVGKTVASCALLQAAKAAGYRTAGYKPVASGSEKTPEGLRNSDALALQRNSSLQLDYATVNPYTFAEPTSPHIISAQEGRPIESLVMSAGLRALEQQADWVLVEGAGGWFTPLSDTFTFADWVTQEQLPVILVVGVKLGCINHAMLTAQVIQHAGLTLAGWVANDVTPPGKRHAEYMTTLTRMIPAPLLGEIPWLAENPENAATGKYINLALL
B2: HscA substrate binding domain (SBD-HscA, residues 389-616) (domain or fragment, E. coli, UniProt P0A6Z1 389-616, looked up)
chain: LDVIPLSLGLETMGGLVEKVIPRNTTIPVARAQDFTTFKDGQTAMSIHVMQGERELVQDCRSLARFALRGIPALPAGGAHIRVTFQVDADGLLSVTAMEKSTGVEASIQVKPSYGLTDSEIASMIKDSMSYAEQDVKARMLAEQKVEAARVLESLHGALAADAALLSAAERQVIDDAAAHLSEVAQGDDVDAIEQAIKNVDKQTQDFAARRMDQSVRRALKGHSVDEV
B3: BioB containing one [2Fe-2S]2+ cluster per monomer (enzyme, E. coli, UniProt P12996 1-346, looked up)
chain: MAHRPRWTLSQVTELFEKPLLDLLFEAQQVHRQHFDPRQVQVSTLLSIKTGACPEDCKYCPQSSRYKTGLEAERLMEVEQVLESARKAKAAGSTRFCMGAAWKNPHERDMPYLEQMVQGVKAMGLEACMTLGTLSESQAQRLANAGLDYYNHNLDTSPEFYGNIITTRTYQERLDTLEKVRDAGIKVCSGGIVGLGETVKDRAGLLLQLANLPTPPESVPINMLVKVKGTPLADNDDVDAFDFIRTIAVARIMMPTSYVRLSAGREQMNEQTQAMCFMAGANSIFYGCKLLTTPNPEEDKDLQLFRKLGLNPQQTAVLAGDNEQQQRLEQALMTPDTDEYYNAAAL
B4: BioB apoprotein (His6-biotin synthase lacking both iron-sulfur clusters) (enzyme, E. coli, UniProt P12996 1-346, looked up)
chain: B3 chain
B5: BioB containing both [2Fe-2S]2+ and [4Fe-4S]2+ clusters (enzyme, E. coli, UniProt P12996 1-346, looked up)
chain: B3 chain

Key:
[1] = biological target: T1, HscA, Hsp70-class molecular chaperone …; assay: molecular weight filtration assay
[2] = biological target: B3; assay: molecular weight filtration assay
[3] = biological target: T1, HscA, Hsp70-class molecular chaperone …; assay: molecular weight filtration assay; remark: listed apart in the source
[4] = biological target: T1, HscA, Hsp70-class molecular chaperone …; assay: molecular weight filtration assay; remark: listed apart in the source
[5] = biological target: the molecule itself; assay: AUC
[6] = biological target: T1, HscA, Hsp70-class molecular chaperone …; assay: AUC
[7] = biological target: T1, HscA, Hsp70-class molecular chaperone …; assay: molecular weight filtration assay; remark: listed apart in the source
[8] = biological target: B2; assay: molecular weight filtration assay
[9] = biological target: the molecule itself; assay: AUC; remark: listed apart in the source

Question: With B1 as the binder, how does the Kd [1] read?
Answer: ≥ 1100 µM

Question: B2 was tested. Which Kd [2] did it give?
Answer: 0.55 ± 0.3 µM

Question: Which results are given for B3?
Answer: Kd [3]: ~5 µM; Kd [4]: 5.5 µM and 5.6 µM; stoichiometry N [5]: 2; Kd [6]: 12 µM; stoichiometry N [6]: 1 HscA per BioB dimer and 2 HscA per BioB dimer; stoichiometry N [7]: ~1 HscA per BioB dimer; stoichiometry N [8]: 1

Question: Which results are given for B4?
Answer: stoichiometry N [9]: 2; stoichiometry N [7]: 0.96 apoBioB dimer per HscA

Question: B5 was tested. Which “stoichiometry N” value [7] did it give?
Answer: ~1 HscA per BioB dimer
